{
  "source": "patent US20180371086A1",
  "experiment_in_all_cases": "cell-based or functional assay",
  "key": {"[1]": {"molecular_target": "HIV-1 Env of isolate 8398 (HIV-1)"}, "[2]": {"molecular_target": "HIV-1 Env of clone THRO (HIV-1)"}, "[3]": {"molecular_target": "HIV-1 Env of isolate 92HT593 (HIV-1)"}},
  "data": [
    {"substance": "PGT-121.60 (antibody)", "values": [
      {"measurement": "IC50 (neutralization, CEM.NKr.CCR5.LucR based assay)", "setting": "[1]", "value": 0.028, "unit": "mg/L"},
      {"measurement": "IC50 (neutralization, CEM.NKr.CCR5.LucR based assay)", "setting": "[2]", "value": "> 100", "unit": "mg/L"},
      {"measurement": "IC50 (neutralization, CEM.NKr.CCR5.LucR based assay)", "setting": "[3]", "value": 0.024, "unit": "mg/L"}
    ]}
  ]
}
